In this series the target is T1, peptide 23, Dap-substituted pyrene derivative at Y+3 (not fully specified).
T1 chain: EEEIYGEXEA

The Km is the substrate concentration at which the rate is half of its maximum. The term Vmax denotes the rate approached at saturating substrate.

B1: Fes/Fps (protein)
chain: MGFSSELCSPQGHGVLQQMQEAELRLLEGMRKWMAQRVKSDREYAGLLHHMSLQDSGGQSRAISPDSPISQSWAEITSQTEGLSRLLRQHAEDLNSGPLSKLSLLIRERQQLRKTYSEQWQQLQQELTKTHSQDIEKLKSQYRALARDSAQAKRKYQEASKDKDRDKAKDKYVRSLWKLFAHHNRYVLGVRAAQLHHQHHHQLLLPGLLRSLQDLHEEMACILKEILQEYLEISSLVQDEVVAIHREMAAAAARIQPEAEYQGFLRQYGSAPDVPPCVTFDESLLEEGEPLEPGELQLNELTVESVQHTLTSVTDELAVATEMVFRRQEMVTQLQQELRNEEENTHPRERVQLLGKRQVLQEALQGLQVALCSQAKLQAQQELLQTKLEHLGPGEPPPVLLLQDDRHSTSSSEQEREGGRTPTLEILKSHISGIFRPKFSLPPPLQLIPEVQKPLHEQLWYHGAIPRAEVAELLVHSGDFLVRESQGKQEYVLSVLWDGLPRHFIIQSLDNLYRLEGEGFPSIPLLIDHLLSTQQPLTKKSGVVLHRAVPKDKWVLNHEDLVLGEQIGRGNFGEVFSGRLRADNTLVAVKSCRETLPPDLKAKFLQEARILKQYSHPNIVRLIGVCTQKQPIYIVMELVQGGDFLTFLRTEGARLRVKTLLQMVGDAAAGMEYLESKCCIHRDLAARNCLVTEKNVLKISDFGMSREEADGVYAASGGLRQVPVKWTAPEALNYGRYSSESDVWSFGILLWETFSLGASPYPNLSNQQTREFVEKGGRLPCPELCPDAVFRLMEQCWAYEPGQRPSFSTIYQELQSIRKRHR
On to B1, for which the Km stood at 60 µM and the Vmax turned out to be 3 µmol/min/mg.

B2: c-Met (protein)
chain: KKRKQIKDLGSELVRYDARVHTPHLDRLVSARSVSPTTEMVSNESVDYRATFPEDQFPNSSQNGSCRQVQYPLTDMSPILTSGDSDISSPLLQNTVHIDLSALNPELVQAVQHVVIGPSSLIVHFNEVIGRGHFGCVYHGTLLDNDGKKIHCAVKSLNRITDIGEVSQFLTEGIIMKDFSHPNVLSLLGICLRSEGSPLVVLPYMKHGDLRNFIRNETHNPTVKDLIGFGLQVAKGMKYLASKKFVHRDLAARNCMLDEKFTVKVADFGLARDMYDKEYYSVHNKTGAKLPVKWMALESLQTQKFTTKSDVWSFGVLLWELMTRGAPPYPDVNTFDITVYLLQGRRLLQPEYCPDPLYEVMLKCWHPKAEMRPSFSELVSRISAIFSTFIGEHYVHVNATYVNVKCVAPYPSLLSSEDNADDEVDTRPASFWETS
With B2, the “phosphorylation of the peptide (fluorescence)” value (“phosphorylation of the peptide” for short) is reported as “unable to effectively catalyze the phosphorylation of either 23 or 25”.

B3: MLK1 (protein)
chain: PPIQLLEIDFAELTLEEIIGIGGFGKVYRAFWIGDEVAVKAARHDPDEDISQTIENVRQEAKLFAMLKHPNIIALRGVCLKEPNLCLVMEFARGGPLNRVLSGKRIPPDILVNWAVQIARGMNYLHDEAIVPIIHRDLKSSNILILQKVENGDLSNKILKITDFGLAREWHRTTKMSAAGTYAWMAPEVIRASMFSKGSDVWSYGVLLWELLTGEVPFRGIDGLAVAYGVAMNKLALPIPSTCPEPFAKLMEDCWNPDPHSRPSFTNILDQLTTIEESGFFE
As to B3, the “phosphorylation of the peptide” value is recorded as “unable to effectively catalyze the phosphorylation of either 23 or 25”.

B4: LynB (protein)
chain: MGCIKSKGKDSLSDDGVDLKTQPVPESQLLPGQRFQTKDPEEQGDIVVALYPYDGIHPDDLSFKKGEKMKVLEEHGEWWKAKSLLTKKEGFIPSNYVAKLNTLETEEWFFKDITRKDAERQLLAPGNSAGAFLIRESETLKGSFSLSVRDFDPVHGDVIKHYKIRSLDNGGYYISPRITFPCISDMIKHYQKQADGLCRRLEKACISPKPQKPWDKDAWEIPRESIKLVKRLGAGQFGEVWMGYYNNSTKVAVKTLKPGTMSVQAFLEEANLMKTLQHDKLVRLYAVVTREEPIYIITEYMAKGSLLDFLKSDEGGKVLLPKLIDFSAQIAEGMAYIERKNYIHRDLRAANVLVSESLMCKIADFGLARVIEDNEYTAREGAKFPIKWTAPEAINFGCFTIKSDVWSFGILLYEIVTYGKIPYPGRTNADVMTALSQGYRMPRVENCPDELYDIMKMCWKEKAEERPTFDYLQSVLDDFYTATEGQYQQQP
In the case of B4, the Km is 130 µM and the Vmax was found to be 4 µmol/min/mg.

B5: ZAP-70 (protein)
chain: MPDPAAHLPFFYGSISRAEAEEHLKLAGMADGLFLLRQCLRSLGGYVLSLVHDVRFHHFPIERQLNGTYAIAGGKAHCGPAELCEFYSRDPDGLPCNLRKPCNRPSGLEPQPGVFDCLRDAMVRDYVRQTWKLEGEALEQAIISQAPQVEKLIATTAHERMPWYHSSLTREEAERKLYSGAQTDGKFLLRPRKEQGTYALSLIYGKTVYHYLISQDKAGKYCIPEGTKFDTLWQLVEYLKLKADGLIYCLKEACPNSSASNASGAAAPTLPAHPSTLTHPQRRIDTLNSDGYTPEPARITSPDKPRPMPMDTSVYESPYSDPEELKDKKLFLKRDNLLIADIELGCGNFGSVRQGVYRMRKKQIDVAIKVLKQGTEKADTEEMMREAQIMHQLDNPYIVRLIGVCQAEALMLVMEMAGGGPLHKFLVGKREEIPVSNVAELLHQVSMGMKYLEEKNFVHRDLAARNVLLVNRHYAKISDFGLSKALGADDSYYTARSAGKWPLKWYAPECINFRKFSSRSDVWSYGVTMWEALSYGQKPYKKMKGPEVMAFIEQGKRMECPPECPPELYALMSDCWIYKWEDRPDFLTVEQRMRACYYSLASKVEGPPGSTQKAEAACA
Regarding B5, the “phosphorylation of the peptide” value was “unable to effectively catalyze the phosphorylation of either 23 or 25”.

B6: Csk (protein)
chain: MSAIQAAWPSGTECIAKYNFHGTAEQDLPFCKGDVLTIVAVTKDPNWYKAKNKVGREGIIPANYVQKREGVKAGTKLSLMPWFHGKITREQAERLLYPPETGLFLVRESTNYPGDYTLCVSCDGKVEHYRIMYHASKLSIDEEVYFENLMQLVEHYTSDADGLCTRLIKPKVMEGTVAAQDEFYRSGWALNMKELKLLQTIGKGEFGDVMLGDYRGNKVAVKCIKNDATAQAFLAEASVMTQLRHSNLVQLLGVIVEEKGGLYIVTEYMAKGSLVDYLRSRGRSVLGGDCLLKFSLDVCEAMEYLEGNNFVHRDLAARNVLVSEDNVAKVSDFGLTKEASSTQDTGKLPVKWTAPEALREKKFSTKSDVWSFGILLWEIYSFGRVPYPRIPLKDVVPRVEKGYKMDAPDGCPPAVYEVMKNCWHLDAAMRPSFLQLREQLEHIKTHELHL
For B6, the Km was 120 µM and the Vmax was 0.4 µmol/min/mg.

B7: Flt3 (protein)
chain: HKYKKQFRYESQLQMVQVTGSSDNEYFYVDFREYEYDLKWEFPRENLEFGKVLGSGAFGKVMNATAYGISKTGVSIQVAVKMLKEKADSSEREALMSELKMMTQLGSHENIVNLLGACTLSGPIYLIFEYCCYGDLLNYLRSKREKFHRTWTEIFKEHNFSFYPTFQSHPNSSMPGSREVQIHPDSDQISGLHGNSFHSEDEIEYENQKRLEEEEDLNVLTFEDLLCFAYQVAKGMEFLEFKSCVHRDLAARNVLVTHGKVVKICDFGLARDIMSDSNYVVRGNARLPVKWMAPESLFEGIYTIKSDVWSYGILLWEIFSLGVNPYPGIPVDANFYKLIQNGFKMDQPFYATEEIYIIMQSCWAFDSRKRPSFPNLTSFLGCQLADAEEAMYQNVDGRVSECPHTYQNRRPFSREMDLGLLSPQAQVEDS
In the case of B7, the Km is 450 µM and the Vmax worked out at 4.9 µmol/min/mg.

Values taken from patent publication US20060211075.
